From IntAct's records for PubMed 29892012

B1: E3 ubiquitin-protein ligase LNX (Homo sapiens), Q8TBB1 (parent)
chain: MNQPESANDPEPLCAVCGQAHSLEENHFYSYPEEVDDDLICHICLQALLDPLDTPCGHTYCTLCLTNFLVEKDFCPMDRKPLVLQHCKKSSILVNKLLNKLLVTCPFREHCTQVLQRCDLEHHFQTSCKGASHYGLTKDRKRRSQDGCPDGCASLTATAPSPEVSAAATISLMTDEPGLDNPAYVSSAEDGQPAISPVDSGRSNRTRARPFERSTIRSRSFKKINRALSVLRRTKSGSAVANHADQGRENSENTTAPEVFPRLYHLIPDGEITSIKINRVDPSESLSIRLVGGSETPLVHIIIQHIYRDGVIARDGRLLPGDIILKVNGMDISNVPHNYAVRLLRQPCQVLWLTVMREQKFRSRNNGQAPDAYRPRDDSFHVILNKSSPEEQLGIKLVRKVDEPGVFIFNVLDGGVAYRHGQLEENDRVLAINGHDLRYGSPESAAHLIQASERRVHLVVSRQVRQRSPDIFQEAGWNSNGSWSPGPGERSNTPKPLHPTITCHEKVVNIQKDPGESLGMTVAGGASHREWDLPIYVISVEPGGVISRDGRIKTGDILLNVDGVELTEVSRSEAVALLKRTSSSIVLKALEVKEYEPQEDCSSPAALDSNHNMAPPSDWSPSWVMWLELPRCLYNCKDIVLRRNTAGSLGFCIVGGYEEYNGNKPFFIKSIVEGTPAYNDGRIRCGDILLAVNGRSTSGMIHACLARLLKELKGRITLTIVSWPGTFL
partner: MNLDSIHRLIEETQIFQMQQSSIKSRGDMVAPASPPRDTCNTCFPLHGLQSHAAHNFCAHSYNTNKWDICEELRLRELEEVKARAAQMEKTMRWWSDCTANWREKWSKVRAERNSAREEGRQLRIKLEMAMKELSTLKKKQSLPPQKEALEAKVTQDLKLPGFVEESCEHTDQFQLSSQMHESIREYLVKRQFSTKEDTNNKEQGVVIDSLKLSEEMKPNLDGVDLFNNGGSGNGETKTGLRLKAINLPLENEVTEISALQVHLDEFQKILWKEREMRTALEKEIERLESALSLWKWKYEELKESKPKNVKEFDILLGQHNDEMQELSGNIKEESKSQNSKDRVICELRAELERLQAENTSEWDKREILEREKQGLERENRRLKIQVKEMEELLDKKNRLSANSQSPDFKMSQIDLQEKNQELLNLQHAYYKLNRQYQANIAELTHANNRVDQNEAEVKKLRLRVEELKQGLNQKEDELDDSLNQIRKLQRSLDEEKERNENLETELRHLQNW
B2: Chorion-specific transcription factor GCMb (Homo sapiens), O75603 (parent)
chain: MPAAAVQEAVGVCSYGMQLSWDINDPQMPQELALFDQFREWPDGYVRFIYSSDEKKAQRHLSGWAMRNTNNHNGHILKKSCLGVVVCTQACTLPDGSRLQLRPAICDKARLKQQKKACPNCHSALELIPCRGHSGYPVTNFWRLDGNAIFFQAKGVHDHPRPESKSETEARRSAIKRQMASFYQPQKKRIRESEAEENQDSSGHFSNIPPLENPEDFDIVTETSFPIPGQPCPSFPKSDVYKATCDLATFQGDKMPPFQKYSSPRIYLPRPPCSYELANPGYTNSSPYPTLYKDSTSIPNDTDWVHLNTLQCNVNSYSSYERSFDFTNKQHGWKPALGKPSLVERTNHGQFQAMATRPYYNPELPCRYLTTPPPGAPALQTVITTTTKVSYQAYQPPAMKYSDSVREVKSLSSCNYAPEDTGMSVYPEPWGPPVTVTRAASPSGPPPMKIAGDCRAIRPTVAIPHEPVSSRTDEAETWDVCLSGLGSAVSYSDRVGPFFTYNNEDF
partner: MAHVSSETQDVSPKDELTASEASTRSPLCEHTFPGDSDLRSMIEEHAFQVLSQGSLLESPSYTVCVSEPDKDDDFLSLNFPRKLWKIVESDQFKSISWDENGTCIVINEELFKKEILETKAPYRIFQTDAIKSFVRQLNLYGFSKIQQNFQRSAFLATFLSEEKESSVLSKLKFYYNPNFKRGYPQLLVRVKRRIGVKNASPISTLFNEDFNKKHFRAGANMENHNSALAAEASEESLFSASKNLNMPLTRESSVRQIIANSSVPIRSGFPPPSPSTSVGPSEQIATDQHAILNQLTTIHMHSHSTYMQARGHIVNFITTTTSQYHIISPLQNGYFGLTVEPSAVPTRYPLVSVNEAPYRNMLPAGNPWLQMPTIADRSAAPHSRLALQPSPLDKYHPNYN
B3: E3 ubiquitin-protein ligase LNX (Homo sapiens), Q8TBB1 (parent)
chain: B1 chain
partner: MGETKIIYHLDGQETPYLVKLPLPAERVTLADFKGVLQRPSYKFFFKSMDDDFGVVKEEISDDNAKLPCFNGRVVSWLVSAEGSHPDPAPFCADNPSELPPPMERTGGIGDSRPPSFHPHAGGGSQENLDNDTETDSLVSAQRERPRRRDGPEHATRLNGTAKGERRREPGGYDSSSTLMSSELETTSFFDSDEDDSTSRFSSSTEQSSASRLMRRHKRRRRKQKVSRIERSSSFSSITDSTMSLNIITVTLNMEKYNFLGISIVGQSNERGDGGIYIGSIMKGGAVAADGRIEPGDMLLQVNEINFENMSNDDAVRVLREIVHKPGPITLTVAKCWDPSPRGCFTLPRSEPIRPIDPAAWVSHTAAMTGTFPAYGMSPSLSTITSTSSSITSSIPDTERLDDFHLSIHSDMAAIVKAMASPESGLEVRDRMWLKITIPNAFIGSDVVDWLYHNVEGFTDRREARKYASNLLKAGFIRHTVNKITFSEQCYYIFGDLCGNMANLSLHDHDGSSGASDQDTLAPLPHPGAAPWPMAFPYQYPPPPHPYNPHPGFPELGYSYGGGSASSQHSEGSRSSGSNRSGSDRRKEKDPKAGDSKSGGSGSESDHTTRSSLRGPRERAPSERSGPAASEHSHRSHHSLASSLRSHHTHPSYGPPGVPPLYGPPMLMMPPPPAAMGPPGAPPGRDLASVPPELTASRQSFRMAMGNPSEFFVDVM
B4: E3 ubiquitin-protein ligase LNX (Homo sapiens), Q8TBB1 (parent)
chain: B1 chain
partner: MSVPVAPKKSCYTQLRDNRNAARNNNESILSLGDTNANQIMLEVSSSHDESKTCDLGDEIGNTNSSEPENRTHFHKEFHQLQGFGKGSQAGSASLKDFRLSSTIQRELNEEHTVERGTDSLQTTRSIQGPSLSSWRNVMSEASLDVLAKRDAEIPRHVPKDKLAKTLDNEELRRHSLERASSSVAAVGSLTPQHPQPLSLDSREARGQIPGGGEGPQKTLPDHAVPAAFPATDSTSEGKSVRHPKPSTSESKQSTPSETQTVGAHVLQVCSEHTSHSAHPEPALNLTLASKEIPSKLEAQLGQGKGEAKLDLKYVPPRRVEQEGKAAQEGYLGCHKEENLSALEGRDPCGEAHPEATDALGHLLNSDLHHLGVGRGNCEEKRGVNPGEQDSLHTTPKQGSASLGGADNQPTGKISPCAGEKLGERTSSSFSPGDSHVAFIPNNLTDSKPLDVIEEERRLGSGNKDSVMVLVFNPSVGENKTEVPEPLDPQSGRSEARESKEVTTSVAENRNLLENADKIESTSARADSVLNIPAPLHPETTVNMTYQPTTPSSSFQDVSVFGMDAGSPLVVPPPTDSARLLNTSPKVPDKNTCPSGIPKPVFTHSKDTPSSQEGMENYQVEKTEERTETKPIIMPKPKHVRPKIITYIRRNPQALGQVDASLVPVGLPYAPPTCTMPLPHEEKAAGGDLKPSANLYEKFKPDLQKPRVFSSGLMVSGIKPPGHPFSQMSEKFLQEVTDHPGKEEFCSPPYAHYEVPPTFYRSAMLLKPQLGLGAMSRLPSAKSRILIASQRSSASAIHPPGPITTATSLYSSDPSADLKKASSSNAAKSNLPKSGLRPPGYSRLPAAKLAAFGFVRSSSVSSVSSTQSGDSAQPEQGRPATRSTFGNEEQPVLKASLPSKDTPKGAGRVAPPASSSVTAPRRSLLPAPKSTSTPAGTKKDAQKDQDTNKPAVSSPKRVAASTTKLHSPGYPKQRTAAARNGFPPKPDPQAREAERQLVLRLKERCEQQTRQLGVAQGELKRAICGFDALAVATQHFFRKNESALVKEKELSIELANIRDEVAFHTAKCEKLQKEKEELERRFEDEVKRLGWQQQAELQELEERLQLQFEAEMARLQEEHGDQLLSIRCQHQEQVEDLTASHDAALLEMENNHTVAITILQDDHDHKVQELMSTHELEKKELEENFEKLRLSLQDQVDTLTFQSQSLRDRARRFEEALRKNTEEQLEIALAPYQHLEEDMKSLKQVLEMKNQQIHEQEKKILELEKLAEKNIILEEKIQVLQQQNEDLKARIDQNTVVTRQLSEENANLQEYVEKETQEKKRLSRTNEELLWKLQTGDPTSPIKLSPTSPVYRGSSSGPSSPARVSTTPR

Variants of: B1
Details: with CCDC102B

Row | effect of a mutation on the interaction | Variant
1 | disrupting interaction strength | E295K

Variants of: B2
Details: with hsfy1_human HSFY1, Q96LI6

Row | effect of a mutation on the interaction | Variant
2 | with no effect | G349E

Variants of: B3
Details: with dvl3_human DVL3, Q92997

Row | effect of a mutation on the interaction | Variant
3 | disrupting interaction strength | E295K

Variants of: B4
Details: with mtus2_human MTUS2, Q5JR59

Row | effect of a mutation on the interaction | Variant
4 | disrupting interaction strength | E295K
